Source: patent US20220073608A1

T1: human SEMA4D, full length, on CHO-K1 cells (CHO-K1 hSEMA4D) (human) (UniProt Q92854)
T1 sequence (looked up): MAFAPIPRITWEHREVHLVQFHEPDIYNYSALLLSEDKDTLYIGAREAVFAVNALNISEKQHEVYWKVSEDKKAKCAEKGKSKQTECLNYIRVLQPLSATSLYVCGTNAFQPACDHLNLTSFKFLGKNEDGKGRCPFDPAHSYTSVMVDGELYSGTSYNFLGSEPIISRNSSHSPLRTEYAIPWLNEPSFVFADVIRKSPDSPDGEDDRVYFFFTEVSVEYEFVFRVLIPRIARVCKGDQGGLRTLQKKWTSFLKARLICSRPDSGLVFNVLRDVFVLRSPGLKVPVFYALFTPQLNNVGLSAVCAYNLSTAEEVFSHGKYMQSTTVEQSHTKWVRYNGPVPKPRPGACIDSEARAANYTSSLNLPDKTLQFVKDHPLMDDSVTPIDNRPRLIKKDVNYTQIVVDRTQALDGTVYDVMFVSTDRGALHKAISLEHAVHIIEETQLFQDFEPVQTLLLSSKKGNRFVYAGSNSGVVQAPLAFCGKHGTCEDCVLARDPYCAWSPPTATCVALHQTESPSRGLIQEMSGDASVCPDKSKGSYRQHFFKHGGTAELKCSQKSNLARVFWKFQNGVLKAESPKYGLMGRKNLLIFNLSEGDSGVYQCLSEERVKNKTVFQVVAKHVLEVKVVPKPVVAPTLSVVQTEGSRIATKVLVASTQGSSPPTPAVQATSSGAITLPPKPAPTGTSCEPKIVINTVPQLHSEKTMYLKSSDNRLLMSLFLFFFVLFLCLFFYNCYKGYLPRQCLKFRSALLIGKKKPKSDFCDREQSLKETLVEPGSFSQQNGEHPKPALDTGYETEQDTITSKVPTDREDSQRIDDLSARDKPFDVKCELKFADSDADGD

T2: biotinylated hSEMA4D ECD-His (human) (UniProt Q92854)
T2 sequence (chain, biotinylated with Biotin-X-X-NHS at a molar ratio of 8,1; sites not stated): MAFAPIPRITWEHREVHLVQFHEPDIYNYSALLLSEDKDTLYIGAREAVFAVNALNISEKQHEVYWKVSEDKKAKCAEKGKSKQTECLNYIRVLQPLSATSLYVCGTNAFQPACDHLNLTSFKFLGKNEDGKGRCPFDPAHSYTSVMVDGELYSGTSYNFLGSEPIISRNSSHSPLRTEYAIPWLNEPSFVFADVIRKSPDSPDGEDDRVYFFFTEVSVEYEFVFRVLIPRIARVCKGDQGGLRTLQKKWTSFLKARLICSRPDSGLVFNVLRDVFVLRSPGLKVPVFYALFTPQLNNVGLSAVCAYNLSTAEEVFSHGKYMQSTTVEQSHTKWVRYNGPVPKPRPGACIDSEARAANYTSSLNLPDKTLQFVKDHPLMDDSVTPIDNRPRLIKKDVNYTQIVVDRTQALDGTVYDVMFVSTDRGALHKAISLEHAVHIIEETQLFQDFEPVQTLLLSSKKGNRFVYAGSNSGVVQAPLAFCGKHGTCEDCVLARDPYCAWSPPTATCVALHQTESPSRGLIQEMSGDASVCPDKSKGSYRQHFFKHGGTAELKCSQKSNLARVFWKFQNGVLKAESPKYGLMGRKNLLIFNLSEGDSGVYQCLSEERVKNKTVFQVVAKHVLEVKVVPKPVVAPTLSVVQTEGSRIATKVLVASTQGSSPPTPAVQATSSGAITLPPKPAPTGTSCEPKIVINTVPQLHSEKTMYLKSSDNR


What was measured:
[1] = biological target: T1, human SEMA4D, full length, on CHO-K1 cells (CHO-K1 hSEMA4D) (human); test: competitive FACS, CHO-K1 hSEMA4D cells; unlabelled Ab 6 ug/mL first, competitor Alexa 488-2D5 0.67 ug/mL
[2] = biological target: T1, human SEMA4D, full length, on CHO-K1 cells (CHO-K1 hSEMA4D) (human); test: competitive FACS, CHO-K1 hSEMA4D cells; unlabelled Ab 6 ug/mL first, competitor Alexa 488-5D8 0.67 ug/mL
[3] = biological target: T1, human SEMA4D, full length, on CHO-K1 cells (CHO-K1 hSEMA4D) (human); test: competitive FACS, CHO-K1 hSEMA4D cells; unlabelled Ab 6 ug/mL first, competitor Alexa 488-VX15 0.67 ug/mL
[4] = biological target: T2, biotinylated hSEMA4D ECD-His (human); test: BLI (Octet-Red), scFv in bacterial periplasmic extract; off-rate ranking

inhibition rate (%) [1] | inhibition rate (%) [2] | inhibition rate (%) [3] | fold reduction of off-rate against the wild type [4] | Binder
96% | 98% | 97% | – | VX15 (antibody, INN chains, looked up, V domains shown) VH: QVQLVQSGAEVKKPGSSVKVSCKASGYSFSDYYMHWVRQAPGQGLEWMGQINPTTGGASYNQKFKGKATITVDKSTSTAYMELSSLRSEDTAVYYCARYYYGRHFDVWGQGTTVTVSS VL: DIVMTQSPDSLAVSLGERATINCKASQSVDYDGDSYMNWYQQKPGQPPKLLIYAASNLESGVPDRFSGSGSGTDFTLTISSLQAEDVAVYYCQQSNEDPYTFGQGTKLEIK
– | – | – | 45 times | 2D5-b1-3D9 scFv (periplasmic extract) (scFv, part only; not given: linker, domain order, tags, V domains shown, not shown: another chain or arm of the molecule; large carriers; small tags and cut ends) VH: QVTLRESGPALVKPTQTLTLTCTFSGFSLTTTGVAVTWIRQPPGKALEWLALIDWDDDKYYSTSLKTRLTISKDTSKNQVVLTMTNMDPVDTATYYCARIASGDSGGYFADWGQGTLVTVSS VL: SYELTQPPSVSVSPGQTASITCSGDKLDDKYVYWYQQKPGQSPVLVIYMDNKRKSGIPERFSGSNSGNTATLTISGTQAMDEADYYCQAWESSSDQYVFGTGTKVTVL
